Source: patent US20110262525A1, “METHODS OF TREATMENT” (SCHERING CORPORATION, priority 2006, published 2011)

Tests used:
[1] = system: OS-31 xenograft (Osteosarcoma); experiment: PPTP in vivo xenograft OS-31; conditions: OS-31 (Osteosarcoma) xenograft, 0.5 mg per mouse ip twice weekly for four weeks
Protocol: (§1) The PPTP includes a molecularly characterized in vitro panel of cell lines (n=27) and in vivo panel of xenografts (n=61) representing most of the common types of childhood solid tumors and childhood ALL (acute lymphoblastic leukemia). LCF/HCA anti-IGF1R antibody was tested against the PPTP in vitro panel at concentrations ranging from 0.01 nM to 100 nM; and was tested against the PPTP in vivo panel at a dose of 0.5 mg per mouse administered twice weekly for four weeks via intraperitoneal injection. Three measures of antitumor activity were used: 1) response criteria modeled after the clinical setting; 2) treated-to-control (T/C) tumor volume at day 21; and 3) a time to event (4-fold increase in tumor volume) measure based on the median EFS of treated and control lines (intermediate activity required EFS (event-free survival) T/C>2, and high activity additionally required a net reduction in median tumor volume at the end of the experiment).
(§2) Stage 1 testing involved testing an agent across the entire PPTP panel of childhood cancer xenograft lines at its maximum tolerated dose (MTD) or at a dose selected based on PK/PD (pharmacokinetic/pharmacodynamic) studies using adult preclinical models.
(§3) In vivo solid tumor testing: For each xenograft line, 10 mice bearing subcutaneous (SC) tumors initiated treatment when the tumors were between 0.2-0.5 cm^3 in volume. Two perpendicular tumor diameters were measured at once weekly intervals with digital vernier calipers. Assuming tumors to be spherical, volumes were calculated from the formula (π/6)×d3, where d represented the mean diameter.
Drug: LCF/HCA was dissolved in 20mM sodium acetate pH 5 buffer containing 150 mM sodium chloride, and administered intraperitoneally twice weekly for 4 consecutive weeks at a dose of 0.5 mg per animal. […]
(§4) Median Group Response: Each individual mouse in each treatment group was assigned a response score (see Tables above) and a median score for the treatment group was calculated and then each treatment group was assigned an overall response according to the table below. […]

[2] = system: squamous cell carcinoma cell line SCC 9; experiment: Cell-Titer Glo proliferation assay, SCC9; assay type: cell-based; conditions: 0.000256-100 nM antibody, 96 hours
Protocol: Cell proliferation was assayed using a Cell-Titer Glo assay (Promega Corp.; Madison, Wis.). A cell-titer glo assay generates a “glow” luminescent signal in the presence of ATP from viable cells, which can be detected with a plate reader luminometer or CCD imaging device.
In this assay, squamous cell carcinoma cells, SCC9, SCC25 and SCC15, were trypsinized, counted and resuspended at 25,000 cells/ml in 10% HI-FBS RPMI containing NEAA, L-Glu, MEM Vitamins and PS. […] (2500 cells) were added to each well BD Falcon 96 well black, clear bottom TC treated plate. Cells were allowed to attach and spread overnight at 37° C. Then, 10% RPMI medium was replaced with […] 2% RPMI, containing the LCF/HCA antibody at the appropriate concentration, the following day. The anti-IGF1R antibody concentrations used in each experiment were 100 nM, 20 nM, 5 nM, 0.8 nM, 0.16 nM, 0.032 nM, 0.0064 nM, 0.00128 nM, and 0.000256 nM. All treatments were prepared in 2% RPMI at 20× concentration and serial diluted. Every test point was prepared in triplicate on separate assay plates. As mentioned above, cell proliferation was measured using the CellTiter-Glo Luminescent Cell Viability Assay (Promega) at 96 hours post treatment. Luminescence was detected on a Wallac 420 Plate Reader with stacker.

[3] = system: SCC15 human squamous cell carcinoma tumor cells; experiment: SCC15 squamous cell carcinoma xenograft in SCID mice; assay type: in vivo, mouse; conditions: 0.1 mg/injection ip two times per week, seven times starting on day 10
Protocol: Immune-deficient SCID mice (strain SCID) were inoculated with SCC15 human squamous cell carcinoma tumor cells in the right flank, subcutaneously, along with Matrigel (1:1 cells:gel). In these experiments, 5×10^6 cells/mouse in a 1:1 mix with regular matrigel were inoculated. The LCF/HCA anti-IGF1R antibody was inoculated intraperitoneally (ip) (0.1 mg/injection). Mice were dosed with the antibody two times per week, by intraperitoneal injection, seven times starting on day 10 with the last dose on day 31. Tumor size was measured with calipers and the data was entered into the labcat program. Mice were grouped with average size of 100 mm^3. Tumor size and body weight were measured twice weekly.

EW5 xenograft (Ewings) = experiment: PPTP in vivo xenograft EW5; design: key to EFS activity notation (high, intermediate, indeterminate): high (!); intermediate (#); indeterminate (^)
Protocol: as §1, §2, §3
(§5) Drug: LCF/HCA was dissolved in 20mM sodium acetate pH 5 buffer containing 150 mM sodium chloride, and administered intraperitoneally twice weekly for 4 consecutive weeks at a dose of 0.5 mg per animal. The antibody was provided to each testing site in coded vials for blinded testing according the PPTP's standard operating procedures.
(§6) Median Group Response: Each individual mouse in each treatment group was assigned a response score (see Tables above) and a median score for the treatment group was calculated and then each treatment group was assigned an overall response according to the table below.
(§7) Statistical Methods: Event-free survival (EFS) distributions of each treatment group were compared to the EFS distribution of the respective control group using the exact log rank test. P-values were 2-sided & were not adjusted for multiple comparisons given the exploratory nature of this study. P-values<0.05 were considered to be significant.

[4] = system: ALL-4 xenograft (ALL B-precursor); experiment: PPTP in vivo leukemia xenograft ALL-4; conditions: ALL-4 (ALL B-precursor) xenograft; 0.5 mg per mouse ip twice weekly for four weeks
Protocol: The PPTP includes a molecularly characterized in vitro panel of cell lines (n=27) and in vivo panel of xenografts (n=61) representing most of the common types of childhood solid tumors and childhood ALL (acute lymphoblastic leukemia). LCF/HCA anti-IGF1R antibody was tested against the PPTP in vitro panel at concentrations ranging from 0.01 nM to 100 nM; and was tested against the PPTP in vivo panel at a dose of 0.5 mg per mouse administered twice weekly for four weeks via intraperitoneal injection. […]
In vivo acute lymphoblastic leukemia testing: For each xenograft line, 8 mice were inoculated with 3-5×10^6 mononuclear cells purified from the spleens of secondary recipient mice. Engraftment was monitored weekly by flow cytometry, and treatment was initiated when the proportion of human CD45+ cells in the peripheral blood reached 1%. The proportion of human CD45+ cells in the peripheral blood was monitored weekly throughout the course of treatment. […]
as §4

[5] = system: NB-1643 xenograft (Neuroblastoma); experiment: PPTP in vivo xenograft NB-1643; conditions: NB-1643 (Neuroblastoma) xenograft, 0.5 mg per mouse ip twice weekly for four weeks
Protocol: as §1, §2, §3, §5, §6, §7

[6] = system: A498 human kidney carcinoma tumor cells; experiment: A498 renal cell carcinoma xenograft in athymic nude mice; assay type: in vivo, mouse; conditions: 0.1 mg/injection ip two times per week, seven times starting on day 12
Protocol: Athymic nude mice were inoculated with A498 human kidney carcinoma tumor cells in the right flank, subcutaneously, along with Matrigel (1:1::cells:gel). In these experiments, 5×10^6 cells/mouse in a 1:1 mix with regular matrigel. The LCF/HCA anti-IGF1R antibody was inoculated intraperitoneally (ip) (0.1 mg/injection). Mice were dosed with antibody two times per week, by intraperitoneal injection, seven times starting on day 12. Tumor size was measured with calipers and the data was entered into the LABCAT data experimental collection and analysis program program (Innovative Programming Associates, Inc.; Princeton, N.J.). Mice were grouped with average size of 100 mm^3. Tumor size and body weight were measured twice weekly.

[7] = 0.5 mg per mouse ip twice weekly for four weeks

B1: LCF/HCA: fully human anti-IGF1R antibody comprising the mature 19D12/15H12 light chain F (LCF) and mature heavy chain A (HCA) (antibody, V domains shown)
VH: EVQLVQSGGGLVHPGGSLRLSCAASGFTFSSFAMHWVRQAPGKGLEWISVIDTRGATYYADSVKGRFTISRDNAKNSLYLQMNSLRAEDMAVYYCARLGNFYYGMDVWGQGTTVTVSS
VL: EIVLTQVPDFQSVTPKEKVTITCRASQSIGSSLHWYQQKPDQSPKLLIKYASQSLSGVPSRFSGSGSGTDFTLTINSLEAEDAAAYYCHQSSRLPHTFGGGTKVEIKRT
- EFS T/C [1]: 1.3
- Median Final RTV [1]: >4
- Tumor Volume T/C ([1]; day 21): 0.88
- proliferation of squamous cell carcinoma cell line [2]: inhibited
- tumor growth [3]: less than that observed in mice only receiving a control injection without the antibody
- EFS T/C (EW5 xenograft (Ewings); [7]): > 2.3
- EFS activity notation (high, intermediate, indeterminate) (EW5 xenograft (Ewings); [7]): !
- Median Final RTV (EW5 xenograft (Ewings); [7]): 0.4!
- Overall Group Response (EW5 xenograft (Ewings); [7]): CR* (7 < MS ≦ 9)
- Tumor Volume T/C (EW5 xenograft (Ewings); day 21, 0.5 mg per mouse ip twice weekly for four weeks): 0.12
- EFS T/C [4]: 0.8
- Median Final RTV [4]: >25
- EFS T/C [5]: 1.8
- Median Final RTV [5]: >4
- Overall Group Response [5]: PD2 (1 < MS ≦ 3)
- Tumor Volume T/C ([5]; day 21): 0.53
- in vivo growth of renal cell carcinoma tumor [6]: in vivo growth inhibition
